This passage reports Tm results from FireProtDB (doi:10.1016/j.jmb.2003.11.056).

A word on the Tm: it is the temperature at which the thermal transition is half complete.

The conditions of this data set: Escherichia coli (strain K12), Thermal, Fluorescence, whole UniProt chain shown.

Where “and” joins values, the source holds several entries; their conditions need not be identical. Identical values can stand only once.

B1: Iron-sulfur cluster assembly protein CyaY wild type, P27838 (protein)
chain: MNDSEFHRLADQLWLTIEERLDDWDGDSDIDCEINGGVLTITFENGSKIIINRQEPLHQVWLATKQGGYHFDLKGDEWICDRSGETFWDLLEQAATQQAGETVSFR
As for B1, the Tm (pH 7, phosphate 20 mM) was 53.2 °C and 53.9 °C and 53.8 °C; the Tm (pH 7.2, Hepes 10 mM) is 49.2 °C and 50.9 °C.
